In US20110028686A1 (published 2011):

What was measured:
Assay in all cases: fluorescence polarization
pP53-03 = molecular target: pP53-03
pP53-02 = molecular target: pP53-02
pP53-01 = molecular target: pP53-01
pP53-04 = molecular target: pP53-04

B1: GST-MDM2 (other)
chain: MCNTNMSVPTDGAVTTSQIPASEQETLVRPKPLLLKLLKSVGAQKDTYTMKEVLFYLGQYIMTKRLYDEKQQHIVYCSNDLLGDLFGVPSFSVKEHRKIYTMIYRNLVVVNQQESSDSGTSVSENRCHLEGGSDQKDLVQELQEEKPSSSHLVSRPSTSSRRRAISETEENSDELSGERQRKRHKSDS
B1 showed a Kd (pP53-03) of 546 nM, a Kd (pP53-02) of 766 nM and a Kd (pP53-01) of 2800 nM. The Kd (pP53-04) was 334 nM.
